Test results reported in the nanobody polyreactivity screen of Harvey et al. (2022).

Test: yeast display, Sf9 membrane polyspecificity reagent, FACS + sequencing; frameworks hold sequencing errors
How it was run: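 A nanobody's polyreactivity label depends on the gate it was sorted from. Yeast display cells were stained with 10% biotinylated, detergent-solubilized Sf9 membrane reagent for 1 hour at 4 °C, enriched on streptavidin microbeads and sorted by FACS. The low and high (top ~1%) gates were set on anti-HA fluorescence for expression and streptavidin fluorescence for reagent binding.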

QVQLVESGGGLVQAGGSLRLSCAASGIIFRYYAMGWYRQAPGKEREFVAAINYSGGSTYYADSVKGRFTISRDNAKYSVYLLMNSLKPEDTAVYYCAARSYTYTAPIYGYWGQGTQVTVSS
polyreactivity (PSR sort gate): high polyreactivity

QVQLVESGGGLVQAGGSLRLSCAASGIIFRYYAMGWYRQAPGKERELVAGITSNGGSTYYADSVKGRFTISRDNAKNTVYLQMNSLKPVDTAVYYCAAVSLYVWWALEYWGQGTQVTVSS
polyreactivity (PSR sort gate): high polyreactivity

QVQLVESGGGLVQAGGSLRLSCAASGIIFSDYAMGWYRQAPGKERELVATITRSVRTSYADSVKGRFTISRDNAKNTVYLQMNSLKPEDTAVYYCNADFVGAVIAYDYLGQGTQVTVSS
polyreactivity (PSR sort gate): low polyreactivity

QVQLVESGGGLVQAGGSLRLSCAASGIIFSGYAMGWYRQAPGKERELVAAITGSGDITYYADSVKGRFTISRDNAKNTVYLQMNSLKPEDTAVYYCADVASSQYRAEEYNYWGQGTQVTVSS
polyreactivity (PSR sort gate): low polyreactivity

QVQLVESGGGLVQAGGSLRLSCAASGIIFSLYAMGAYIQATGKERELVAAITTGGRTYYADSVKGRFTISRDNAKYSVYLQMNSLKPEDTAVYYCAALGPWQGGTTLSTNRGYWGQGTQVTVSS
polyreactivity (PSR sort gate): high polyreactivity

QVQLVESGGGLVQAGGSLRLSCAASGIIFSPYARGWYRQAPGKERELVAAISYSGGSTYYADSVKGRFTISRDNAKNTVYLQMNSLKPEDTAVYYCAVVYSYYLAVLGYWDYDYWGQGTQVTVSS
polyreactivity (PSR sort gate): low polyreactivity

QVQLVESGGGLVQAGGSLRLSCAASGIIFSQYAMGWYRQAPGKERELVASISRSGGITYYADSVKGRFTISRDNAKNTVYLQMNSLKPEDTAVYYCNAAKACREQWTSFDYWGQGTQVTVSS
polyreactivity (PSR sort gate): high polyreactivity

QVQLVESGGGLVQAGGSLRLSCAASGIIFSRYAMGWYRQAPGKERELVAAISTSGGRTFYADSVKGRFTISRDYAKNTVYLQMNSLKPEDTAVYYCNAEIQRGPGRGGYNYWGQGTQVTVSS
polyreactivity (PSR sort gate): high polyreactivity

QVQLVESGGGLVQAGGSLRLSCAASGIIFSSNVMGWYRQAPGKERELVAAISRSGDRSYYADSVKGRFTISRDNAKITVYLQMNSLKPEDTAVYYCAGRVRVNVVSNGYWGQGTQVTVSS
polyreactivity (PSR sort gate): high polyreactivity

QVQLVESGGGLVQAGGSLRLSCAASGIIFSSNVMGWYRQAPGKERELVAAISRSGDRTYYADSVKGRFTISRDNAKNTVYLQMNSLKPEDTAVYYCAARERVNVVSNGYWGQGTQVTVSS
polyreactivity (PSR sort gate): high polyreactivity

QVQLVESGGGLVQAGGSLRLSCAASGIIFSVYAMGWYRQAPGKERELVAAITRSGSRTYYADSVKGRFTISRDNAKNTVYLQMNSLKPEDTAVYYCNAVPRVTRPSAVEEYDYWGQGTQVTVSS
polyreactivity (PSR sort gate): high polyreactivity

QVQLVESGGGLVQAGGSLRLSCAASGIIFSWNTMGWYRQAPGKERELVAAISSSGGSTYYADSVKGRFTISRDNAKNTVYLQMNSLKPEDTAVYYCAADVYHWIHEYDYWGQGTQVTVSS
polyreactivity (PSR sort gate): low polyreactivity

QVQLVESGGGLVQAGGSLRLSCAASGIIFSWYDMGWYRQAPGKERELVAAISSGDRTNYADSVKGRFTISRDNAKNTVYLQMNSLKPEDTAVYYCAADLFPIAGEYDYWGQGTQVTVSS
polyreactivity (PSR sort gate): high polyreactivity

QVQLVESGGGLVQAGGSLRLSCAASGIIFSYNTMGWYRPAPGKERELVAAISRTGGRTYYADSVKGRFTNSRDNAKITVYLQMNSLKPEDTAVYYCAAEQQYASMGYDYWGLGTQVTVSS
polyreactivity (PSR sort gate): high polyreactivity

QVQLVESGGGLVQAGGSLRLSCAASGIIFSYYTMGWYRQAPGKERELVAAISARGGRTYYADSVKGRFTISRDNAKNTVYLQMNSLKPEDTAVYYCAASWSTEYYWGQGTQVTVSS
polyreactivity (PSR sort gate): high polyreactivity

QVQLVESGGGLVQAGGSLRLSCAASGIIFSYYTMGWYRQAPGKERELVAAISRTGGRTYYADSVKGRFTISRDNAKNTVYLQMNSLKPEDTAVYYCAAEQQYASICYDYWGQGTEVTVSS
polyreactivity (PSR sort gate): high polyreactivity

QVQLVESGGGLVQAGGSLRLSCAASGIIFTGYTMGWYRQAPGKERELVAAITWRGGCTYYADSVKGRFTISRDNAKNTVYLQMNSLKPEDTAVYYCAAEGWYSWDDDYWGQGTQVTVSS
polyreactivity (PSR sort gate): low polyreactivity

QVQLVESGGGLVQAGGSLRLSCAASGIIFTKYFMGWYRQAPGKERELVAAINTDGGSTRYADSVKGRFTISRDNAKNTVYLQMNSLKPEDTAVYYCAAVSSRRPGYEYYYWGQGTQVTVSS
polyreactivity (PSR sort gate): high polyreactivity

QVQLVESGGGLVQAGGSLRLSCAASGIIFTPNAMGWSRQAPGKERELVAAINYGGDTTYYADSVKGRFTISRDNAKNTVYFQMNSLKPADTAVYYCATDGTTPTPRDAFVRFDHWGQGTQVTVSS
polyreactivity (PSR sort gate): low polyreactivity

QVQLVESGGGLVQAGGSLRLSCAASGIIFTRNAKGWSRQAPGKERELVAAISRSGGRTSYADSVKGRFTISRDNAKNTVYLHMNSLKPEDTEVYYCYARTTSGWGQGTQVTVSS
polyreactivity (PSR sort gate): high polyreactivity

QVQLVESGGGLVQAGGSLRLSCAASGIIFTRNAMGWYRQATGKERELVAAITYGGSTYYADSVKGRFTISRDNAKNTVYLQMNSLKPEDTAVYYCAVDAYRYRVHSYGKKYGYNYWGQGTQVTVSS
polyreactivity (PSR sort gate): high polyreactivity

QVQLVESGGGLVQAGGSLRLSCAASGIIFTSNTMGWYRQAPGKEREFVASINWNGSSTNADSVKGRFTISRDNAKNTVYLQMNSLKPEDTAVYYCNADYNRNSVQFSLYDYWGQGTQVTVSS
polyreactivity (PSR sort gate): low polyreactivity

QVQLVESGGGLVQAGGSLRLSCAASGIIFTVYAMGWDRQAPGKERELVAAISFSTGRTYYADSVKGRFTISRDNAKNTVYLQMNSLKPEDTAVYYCAASAGHTFSKPFDRGRYGYWGQGTQVTVSS
polyreactivity (PSR sort gate): high polyreactivity

QVQLVESGGGLVQAGGSLRLSCAASGIIFTVYAMGWYRQAPGKERELVAAITWSGGSTYYADSVKGRFTISRDNAKNTVYLQMNSLKPEDTAVYYCNKVGRVWDVETDGDYDYWGQGTQVTVSS
polyreactivity (PSR sort gate): low polyreactivity

QVQLVESGGGLVQAGGSLRLSCAASGIIFTVYAMGWYRQAPGKERELVASITSNGGSTYYADSVKGRFTISRDNAKNTVYLQMNSLKPEDTAVYYCAADSYYDPVDYNYWGQGTQVTVSS
polyreactivity (PSR sort gate): low polyreactivity

QVQLVESGGGLVQAGGSLRLSCAASGIIFTYYAMGWDRQAPGKERELVARISSSGGRTYYADSVKGRFTISRDNAKNTVYLQMNSLKPEDTAVYYCAAAIVSYGRNDYWGQGTQVTVSS
polyreactivity (PSR sort gate): high polyreactivity

QVQLVESGGGLVQAGGSLRLSCAASGIIFTYYAMGWYRQAPGKERELVAAISDSGGGTYYADSVKGRFTISRDNAKNTVYLQMNSLKPEDTAVYYCAASGAWWDDYWGQGTQVTVSS
polyreactivity (PSR sort gate): high polyreactivity

QVQLVESGGGLVQAGGSLRLSCAASGIIFTYYAMGWYRQAPGKERELVAAISVSGSSTYYADSVKARFTISRDYAKNTVYLQMNRLKPEDTAVYYCAVKQGFYSRALKLYYWGQGTQVTVSS
polyreactivity (PSR sort gate): high polyreactivity

QVQLVESGGGLVQAGGSLRLSCAASGIIFTYYAMGWYRQAPGKERELVAAISYRGGSTYYADSVKGRFTISRDNAKNTVYLQMNSLKPEDTAVYYCNARYFRHYDYWGQGTQVTVSS
polyreactivity (PSR sort gate): high polyreactivity

QVQLVESGGGLVQAGGSLRLSCAASGIIFTYYAMGWYRQAPGKERELVASISSSGTSTYYADSVKGRFTISRDNAKNTVYLQMNSLKPEDTAVYYCAADWTGSNGVDYWGQGTQVTVSS
polyreactivity (PSR sort gate): low polyreactivity

QVQLVESGGGLVQAGGSLRLSCAASGIIFVDYVMGWYRQAPGKERELVAAITYTGGSTYYADSVKGRFTISRDNAKNTVYLQMNSLKPEDTAVYYCAARRNDRFFPAYYYWGQGTQVTVSS
polyreactivity (PSR sort gate): high polyreactivity
